From the Human Domainome abundance scans (Beltran et al. 2025)
± gives the uncertainty stated by the source.

B1: Unconventional myosin-Ie, residues 1051 to 1108; numbered along this chain, Q12965 (parent)
chain: PQVPQCKALYAYDAQDTDELSFNANDIIDIIKEDPSGWWTGRLRGKQGLFPNNYVTKI

Variants of: B1
Assay: abundance fitness (aPCA) (normalised: wild type 0, dead -1); higher = more abundant; growth selection in yeast, the domain comes from the species named
Details: Homo sapiens

Row | Variant | abundance fitness
1 | P1K | 0.169 ± 0.23
2 | P1R | -0.362 ± 0.092
3 | P1C | -0.374 ± 0.26
4 | P1A | 0.03 ± 0.074
5 | P1S | 0.006 ± 0.089
6 | P1H | 0.305 ± 0.39
7 | F50W | -0.944 ± 0.14
8 | F50E | -0.911 ± 0.12
9 | F50D | -0.839 ± 0.26
10 | F50Y | -0.831 ± 0.28
11 | F50G | -0.826 ± 0.088
12 | F50A | -0.841 ± 0.11
13 | D26S | -0.522 ± 0.065
14 | D26W | -0.987 ± 0.2
15 | K32C | -0.14 ± 0.051
16 | K32D | -0.242 ± 0.099
17 | K32V | -0.119 ± 0.04
18 | V55A | -0.387 ± 0.069
19 | P35D | -0.023 ± 0.051
20 | P35A | -0.07 ± 0.047
21 | G48M | -0.579 ± 0.39
22 | G48R | -0.646 ± 0.081
23 | A24T | -0.012 ± 0.041
24 | A24C | -0.213 ± 0.1

Row | Variant | abundance fitness
25 | A24Q | -0.164 ± 0.07
26 | A24K | -0.04 ± 0.045
27 | A24F | -0.106 ± 0.1
28 | A24Y | -0.528 ± 0.18
29 | Q15Y | -0.312 ± 0.047
30 | Q15D | -0.145 ± 0.087
31 | Q15R | -0.035 ± 0.03
32 | Q15N | 0.037 ± 0.11
33 | Q15A | -0.087 ± 0.03
34 | Q15G | -0.157 ± 0.031
35 | L20W | -1.01 ± 0.066
36 | L20T | -1.04 ± 0.22
37 | Y12A | -0.803 ± 0.096
38 | Y12R | -0.107 ± 0.037
39 | D18C | -0.05 ± 0.059
40 | D18S | 0.009 ± 0.046
41 | D18N | -0.055 ± 0.077
42 | D18I | -0.197 ± 0.14
43 | D18P | 0.089 ± 0.085
44 | D18L | -0.063 ± 0.049
45 | D18Y | -0.078 ± 0.076
46 | Y54Q | -0.43 ± 0.088
47 | Y54N | -0.657 ± 0.12
48 | L43M | 0.101 ± 0.076

Row | Variant | abundance fitness
49 | L43Y | -0.328 ± 0.08
50 | L43I | 0.062 ± 0.099
51 | L43S | -0.269 ± 0.051
52 | T40P | -1.01 ± 0.071
53 | T40L | -0.058 ± 0.041
54 | T40A | -0.175 ± 0.068
55 | T40R | -0.123 ± 0.045
56 | I58M | 0.015 ± 0.48
57 | E33P | -0.751 ± 0.21
58 | E33L | -0.343 ± 0.052
59 | E33W | -0.819 ± 0.21
60 | E33C | -0.231 ± 0.041
61 | A8S | -0.714 ± 0.15
62 | A8I | -1 ± 0.086
63 | A8V | -0.714 ± 0.11
64 | A8F | -0.619 ± 0.31
65 | A8K | -0.902 ± 0.32
66 | G41Y | -0.88 ± 0.45
67 | G41P | -0.826 ± 0.18
68 | G41L | -0.474 ± 0.18
69 | L9M | -0.213 ± 0.075
70 | L9C | -0.222 ± 0.068
71 | L9Q | -0.268 ± 0.074
72 | L9Y | -0.701 ± 0.25

Row | Variant | abundance fitness
73 | S36Y | -0.349 ± 0.093
74 | S36T | -0.085 ± 0.043
75 | S36K | 0.147 ± 0.071
76 | A14P | -0.371 ± 0.042
77 | A14T | -0.374 ± 0.11
78 | A14I | -0.901 ± 0.31
79 | D29H | -0.193 ± 0.12
80 | D29Q | -0.241 ± 0.067
81 | D29S | -0.185 ± 0.055
82 | D29N | -0.277 ± 0.098
83 | D29T | -0.062 ± 0.039
84 | C6V | -0.001 ± 0.043
85 | C6A | 0.097 ± 0.035
86 | C6W | -0.571 ± 0.072
87 | Q47E | -0.066 ± 0.046
88 | Q47N | -0.507 ± 0.24
89 | Q47P | -0.32 ± 0.1
90 | Q47D | -0.417 ± 0.16
91 | Q47K | 0.007 ± 0.1
92 | Q47Y | 0.248 ± 0.15
93 | Q47L | -0.194 ± 0.066
94 | Q47S | -0.16 ± 0.076
95 | Q47W | -0.111 ± 0.093
96 | Q47T | 0.005 ± 0.087

Row | Variant | abundance fitness
97 | W39R | -0.902 ± 0.12
98 | W39Y | -0.074 ± 0.082
99 | I28V | -0.472 ± 0.45
100 | L49N | -0.428 ± 0.11
101 | L49V | -0.015 ± 0.056
102 | Q2C | -0.193 ± 0.13
103 | N53W | -0.151 ± 0.058
104 | N53H | -0.012 ± 0.078
105 | N53P | -0.516 ± 0.12
106 | G37P | -0.54 ± 0.095
107 | G37K | -0.728 ± 0.082
108 | I30G | -0.719 ± 0.071
109 | I30V | 0.058 ± 0.054
110 | I30C | -0.378 ± 0.04
111 | I30D | -0.628 ± 0.24
112 | I30Y | -1 ± 0.14
113 | Q5T | 0.01 ± 0.047
114 | Q5A | -0.245 ± 0.064
115 | Y10T | -0.218 ± 0.055
116 | Y10V | -0.121 ± 0.04
117 | Y10S | -0.166 ± 0.031
118 | D34G | -0.118 ± 0.063
119 | D34Q | -0.431 ± 0.092
120 | G45Q | -0.149 ± 0.083

Row | Variant | abundance fitness
121 | G45A | -0.319 ± 0.07
122 | G45H | -0.1 ± 0.07
123 | G45P | -0.977 ± 0.49
124 | G45F | -0.321 ± 0.11
125 | P51D | -0.114 ± 0.066
126 | P51A | -0.341 ± 0.05
127 | P51C | -0.316 ± 0.047
128 | P51M | -0.484 ± 0.14
129 | N23M | -0.026 ± 0.047
130 | N23F | -0.076 ± 0.03
131 | N23P | -0.788 ± 0.041
132 | N23A | -0.01 ± 0.031
133 | N23T | -0.01 ± 0.03
134 | N23W | -0.38 ± 0.054
135 | D16M | -0.098 ± 0.054
136 | D16A | -0.055 ± 0.058
137 | I31L | 0.001 ± 0.042
138 | I31V | -0.054 ± 0.034
139 | D13W | -0.368 ± 0.056
140 | D13E | -0.067 ± 0.044
141 | K7S | -0.167 ± 0.055
142 | K7V | -0.057 ± 0.042
143 | K7N | -0.647 ± 0.2
144 | F22I | -0.409 ± 0.073

Row | Variant | abundance fitness
145 | F22M | -0.441 ± 0.055
146 | F22H | -0.727 ± 0.27
147 | F22S | -0.766 ± 0.073
148 | F22V | -0.472 ± 0.079
149 | F22P | -0.834 ± 0.26
150 | K46S | -0.073 ± 0.064
151 | K46D | -0.33 ± 0.12
152 | T17L | -0.239 ± 0.06
153 | N52Q | -0.197 ± 0.096
154 | N52K | -0.284 ± 0.14
155 | S21F | -0.938 ± 0.27
156 | S21M | -0.803 ± 0.15
157 | S21K | -0.266 ± 0.079
158 | I27F | -0.274 ± 0.099
159 | I27Y | -0.19 ± 0.042
160 | A11R | 0.025 ± 0.03
161 | R44W | -0.467 ± 0.12
162 | R44D | -0.019 ± 0.073
163 | R42F | -0.193 ± 0.28
164 | T56G | -0.255 ± 0.044
165 | T56E | 0.033 ± 0.038
166 | K57E | -0.266 ± 0.068
167 | N25A | -0.129 ± 0.054
